From article PMC10700433

B1: ATOR-1017 (evunzekibart) (antibody, V domains shown)
VH: EVQLLESGGGLVQPGGSLRLSCAASGFNFGYSYMSWVRQAPGKGLEWVSSIGSTSSHTYYADSVKGRFTISRDNSKNTLYLQMNSLRAEDTAVYYCARVYSSPGIDYWGQGTLVTVSS
VL: DIQMTQSPSSLSASVGDRVTITCRASQSIGSTLNWYQQKPGKAPKLLIYGASSLQSGVPSRFSGSGSGTDFTLTISSLQPEDFATYYCQQYYTWVPFTFGQGTKLEIK
B2: mouse FcγRI, P26151 25-404 (receptor)
chain: EVVNATKAVITLQPPWVSIFQKENVTLWCEGPHLPGDSSTQWFINGTAVQISTPSYSIPEASFQDSGEYRCQIGSSMPSDPVQLQIHNDWLLLQASRRVLTEGEPLALRCHGWKNKLVYNVVFYRNGKSFQFSSDSEVAILKTNLSHSGIYHCSGTGRHRYTSAGVSITVKELFTTPVLRASVSSPFPEGSLVTLNCETNLLLQRPGLQLHFSFYVGSKILEYRNTSSEYHIARAEREDAGFYWCEVATEDSSVLKRSPELELQVLGPQSSAP
modifications: here or on the partner: soluble ectodomain assumed for BLI
B3: human FcγRIIa, P12318 34-317 (receptor)
chain: QAAAPPKAVLKLEPPWINVLQEDSVTLTCQGARSPESDSIQWFHNGNLIPTHTQPSYRFKANNNDSGEYTCQTGQTSLSDPVHLTVLSEWLVLQTPHLEFQEGETIMLRCHSWKDKPLVKVTFFQNGKSQKFSHLDPTFSIPQANHSHSGDYHCTGNIGYTLFSSKPVTITVQVPSMGSSSPMG
modifications: here or on the partner: Soluble extracellular domain by convention (UniProt topology); construct limits not printed. Allotype of the recombinant protein not stated in the excerpt: given as H131 (H167 in precursor numbering);
B4: human FcγRIIb, P31994 43-310 (receptor)
chain: TPAAPPKAVLKLEPQWINVLQEDSVTLTCRGTHSPESDSIQWFHNGNLIPTHTQPSYRFKANNNDSGEYTCQTGQTSLSDPVHLTVLSEWLVLQTPHLEFQEGETIVLRCHSWKDKPLVKVTFFQNGKSKKFSRSDPNFSIPQANHSHSGDYHCTGNIGYTLYSSKPVTITVQAP
modifications: here or on the partner: soluble ectodomain assumed for BLI

Columns and labels:
[1] = biological target: human 4-1BB on activated primary human immune cells (human (endogenous in primary PBMC)) (UniProt Q07011)
human 4-1BB on activated primary human immune cells (human (endogenous in primary PBMC)), sequence (Q07011 24-255): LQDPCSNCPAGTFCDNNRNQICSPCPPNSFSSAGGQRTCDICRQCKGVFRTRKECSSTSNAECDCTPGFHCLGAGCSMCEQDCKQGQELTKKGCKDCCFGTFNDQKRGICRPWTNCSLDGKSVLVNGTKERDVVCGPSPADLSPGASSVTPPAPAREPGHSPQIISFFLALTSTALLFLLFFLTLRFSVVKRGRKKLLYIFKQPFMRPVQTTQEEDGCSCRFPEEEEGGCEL

[2] = biological target: ATOR-1017 (evunzekibart) (human); test: BLI; Octet RED96; antibodies captured on FABG2 biosensor tips, recombinant Fcγ receptors in solution at suitable concentration ranges; association and dissociation at physiological pH; conditions: remark: other sources report otherwise

| Binder | IFNγ production by IL-2 pre-stimulated human NK cells co-cultured with FcγRI-CHO cells, serially diluted ATOR-1017 [1] [nM] | IFNγ production by anti-CD3-activated human CD8+ T cells co-cultured with FcγRI-CHO cells, 72 h, serially diluted ATOR-1017 [1] [nM] | Kd [2] [nM] |
| --- | --- | --- | --- |
| B1 | 0.1 | 0.2 |  |
| B2 |  |  | 200 |
| B3 |  |  | 1000 |
| B4 |  |  | 800 |
